The labels stand for the following.
B1: HDV Ribozyme (parent)
chain: GGCCGGCAUGGUCCCAGCCUCCUCGCUGGCGCCGGCUGGGCAACAUUCCGAGGGGACCGUCCCCUCGGUAAUGGCGAAUGGGACCCA

The variants in the data set derive from B1. Put plainly: self-cleavage, relative activity (ratio to wild type); higher = more cleavage; co-transcriptional.
For C61A G73A, the self-cleavage turned out to be 0.641.
Turning to U46C G67U, the self-cleavage was determined as 0.831.
For A71C G82U, the self-cleavage stood at 0.298.
C21A A83C: the self-cleavage came out at 0.0378.
Take C21A G38U: the self-cleavage stood at 0.0665.
To G1A G34C belongs 0; to G35C A70U, 0.138.
To A77C C84G belongs 0.317.
For the variant U37G G67U, the self-cleavage came to 0.18.
Take U20A C58A: the self-cleavage amounted to 0.0615.
U23C U46A: the self-cleavage amounted to 0.538.
With U37G A78C the figure was 0.196; with C62A C63U, 0.831.
For the variant A42C G82C, the self-cleavage was 0.
As for C66A U72A, the self-cleavage was 0.608.
To U12G G82A belongs 0.499; to C62A U69C, 0.882; to C24G C33G, 0.0475.
For the variant C24G G73A, the self-cleavage was 0.151.
For the variant C26A U27A, the self-cleavage was found to be 0.749.
Take C30A C33U: the self-cleavage stood at 0.15.
Consider U23C C61G, for which the self-cleavage was 0.945.
Regarding G50A C85U, the self-cleavage is 0.938.
For G74U G82C, the self-cleavage worked out at 0.0723.
Regarding C13G C86A, the self-cleavage was found to be 0.0811.
With A16U G28C the figure was 0; with C21A C24A, 0; with G35C U65G, 0.314.
As for C14A G29U, the self-cleavage was 0.0966.
As for C75U A87U, the self-cleavage amounted to 0.185.
For G31A C85A, the self-cleavage stood at 0.415.
Consider G2C C58A, for which the self-cleavage was determined as 0.
With G29C A87G, the self-cleavage is 0.086.
As for C18A G74A, the self-cleavage was 0.0674.
To C4U G53C belongs 0.782; to U20G C48U, 0.237.
For C19A C66A, the self-cleavage was found to be 0.211.
For the variant C24U U46C, the self-cleavage was 0.268.
With C4U G80C the figure was 0.157.
On to G40C G52U, for which the self-cleavage amounted to 0.246.
For the variant G54C A56C, the self-cleavage amounted to 0.864.
With G68A A70C the figure was 0.707; with U27A A45G, 0.745; with U27C A78G, 0.227.
As for G10C U23A, the self-cleavage was 1.04.
Take A43U G80A: the self-cleavage came out at 0.0237.
As for C58U C62U, the self-cleavage was found to be 0.867.
Turning to C62U G80C, the self-cleavage was determined as 0.281.
With G59C G80U, the self-cleavage was determined as 0.244.
Turning to G11U G25A, the self-cleavage turned out to be 0.
For C21G A51U, the self-cleavage came to 0.0354.
Take U27A U46C: the self-cleavage was 0.733.
With G5C C15U the figure was 0.356; with A16U C62U, 1.04; with G1C G25A, 0.0755.
Regarding G76C G80A, the self-cleavage came to 0.394.
On to C22A G35A, for which the self-cleavage amounted to 0.0386.
A56U A77G: the self-cleavage worked out at 1.01.
In the case of U12G C62U, the self-cleavage worked out at 0.755.
With U65A A77C the figure was 0.277; with C41A A45C, 0.504; with C7G C57U, 0.383.
As to C22A G29A, the self-cleavage was determined as 0.0297.
With G1C C33U the figure was 0.
Turning to C15A U60C, the self-cleavage came out at 0.538.
For the variant G40U G54C, the self-cleavage stood at 0.513.
As for C19U G29C, the self-cleavage is 0.122.
As to C15A G17C, the self-cleavage came to 0.0978.
Turning to A51C U79G, the self-cleavage is 0.415.
In the case of G1A C64A, the self-cleavage came to 0.131.
As to G35C U69A, the self-cleavage was found to be 0.443.
With U47A G59A the figure was 0.746; with C30A C57G, 0.284.
G40U C85A: the self-cleavage amounted to 0.427.
Consider G31C C57A, for which the self-cleavage was 0.282.
In the case of G31C C57G, the self-cleavage worked out at 0.291.
To U69A U79G belongs 0.831.
With A51G A56G the figure was 1.08; with G10C G67U, 0.782.
With A51G C85A, the self-cleavage worked out at 0.673.
In the case of A56U C63G, the self-cleavage is 0.815.
Consider C3U C7A, for which the self-cleavage came to 0.205.
With C32U U72G the figure was 0.494; with C24A C84A, 0.787; with U46A G50C, 0.597.
Consider G5U C30G, for which the self-cleavage was found to be 0.
For the variant C18G G34U, the self-cleavage came to 0.
Turning to C24A G31U, the self-cleavage was determined as 0.0519.
As for C13A G80C, the self-cleavage was 0.125.
With C22U A70U the figure was 0.587.
For C7U G35U, the self-cleavage worked out at 0.0437.
Consider C36A G52U, for which the self-cleavage was 0.14.
To G10C A51U belongs 0.923; to C21U G67C, 0.205; to A8G C15G, 0.262.
As to C33U G38U, the self-cleavage came to 0.0978.
Regarding G73A A78C, the self-cleavage was found to be 0.265.
For the variant C36A A77U, the self-cleavage was found to be 0.217.
Turning to A45G G67C, the self-cleavage is 0.54.
Consider G35A A45G, for which the self-cleavage turned out to be 0.443.
G39C C48G: the self-cleavage came to 0.262.
With G17U A78U, the self-cleavage stood at 0.0739.
For the variant U20C C48G, the self-cleavage was determined as 0.0594.
On to C58U U72C, for which the self-cleavage stood at 0.415.
Consider G59A G68C, for which the self-cleavage amounted to 0.969.
Consider A16U A83C, for which the self-cleavage is 0.575.
In the case of U12A U46G, the self-cleavage was 0.104.
Turning to A71C A83C, the self-cleavage worked out at 0.229.
To C15A C33G belongs 0; to G52A A87C, 1.13.
With C15G A87G the figure was 0.543.
As to G29C A56C, the self-cleavage amounted to 0.237.
With G29C A56G the figure was 0.0615; with G50U G73U, 0.402; with C7A C75G, 0.225.
With A8C C58A the figure was 0.692; with U47G G59C, 1.16.
Turning to G52U G67A, the self-cleavage came to 0.265.
Take G5U A70C: the self-cleavage amounted to 0.415.
A70U G76U: the self-cleavage amounted to 1.07.
Take A45C G68A: the self-cleavage was 0.686.
In the case of U46A G82A, the self-cleavage turned out to be 0.156.
For the variant C3G C49U, the self-cleavage stood at 0.673.
As for U37A A71G, the self-cleavage stood at 0.128.
Regarding C7U G29C, the self-cleavage was determined as 0.185.
A16G G53C: the self-cleavage turned out to be 1.11.
For C62U G81U, the self-cleavage came out at 0.529.
As to C49U C75G, the self-cleavage was found to be 0.0723.
As for A8C G68U, the self-cleavage is 0.943.
In the case of A51G U60C, the self-cleavage was found to be 0.931.
C13U G80C: the self-cleavage came to 0.0332.
As for C21U U37G, the self-cleavage was 0.0875.
With C13G G40U the figure was 0.104; with C7G C21A, 0; with C26G C63A, 0.748.
With C3A G82U the figure was 0.0831; with A16G U69A, 0.985; with A16U U60A, 0.587.
Turning to C62U C66G, the self-cleavage turned out to be 0.746.
Regarding C13A C64G, the self-cleavage was 0.19.
With G11U G28C, the self-cleavage amounted to 0.0992.
For the variant C18U, the self-cleavage was determined as 0.732.
Consider G2A C3A, for which the self-cleavage is 0.0478.
Consider G1U A83G, for which the self-cleavage is 0.461.
On to C14A G81U, for which the self-cleavage is 1.15.
As to C24G A43C, the self-cleavage was determined as 0.0811.
For G25U A51G, the self-cleavage worked out at 0.266.
With G31U A87C the figure was 0.358.
Regarding A8G A42U, the self-cleavage is 0.317.
C44A G55A: the self-cleavage was determined as 0.554.
With U46C A71U, the self-cleavage amounted to 0.767.
With U12C A78C, the self-cleavage was determined as 0.162.
As to A45C U65C, the self-cleavage stood at 0.646.
As to G35C C84U, the self-cleavage was found to be 0.256.
Take A8G U27A: the self-cleavage was 0.867.
With C48A C61G, the self-cleavage is 1.03.
In the case of G11A G68A, the self-cleavage was determined as 0.372.
As for G34U A71U, the self-cleavage is 0.208.
As for A16U C57G, the self-cleavage was 1.22.
To G73A A77C belongs 0.161; to G73U A77G, 0.306; to C36G U60C, 0.237.
On to U27G C63U, for which the self-cleavage amounted to 1.11.
On to C4G U20G, for which the self-cleavage is 0.
With U65A U69A, the self-cleavage was found to be 0.929.
As for U9A G40U, the self-cleavage came out at 0.897.
A51G G68U: the self-cleavage was 0.831.

For the origin of these results see the RNAGym collection of RNA variant scans (doi:10.7554/elife.80360).
